Reference: IntAct's records for PubMed 17699754

B1: DnaA initiator-associating protein DiaA (Escherichia coli (strain K12)), P66817 (parent)
chain: MQERIKACFTESIQTQIAAAEALPDAISRAAMTLVQSLLNGNKILCCGNGTSAANAQHFAASMINRFETERPSLPAIALNTDNVVLTAIANDRLHDEVYAKQVRALGHAGDVLLAISTRGNSRDIVKAVEAAVTRDMTIVALTGYDGGELAGLLGPQDVEIRIPSHRSARIQEMHMLTVNCLCDLIDNTLFPHQDD
partner: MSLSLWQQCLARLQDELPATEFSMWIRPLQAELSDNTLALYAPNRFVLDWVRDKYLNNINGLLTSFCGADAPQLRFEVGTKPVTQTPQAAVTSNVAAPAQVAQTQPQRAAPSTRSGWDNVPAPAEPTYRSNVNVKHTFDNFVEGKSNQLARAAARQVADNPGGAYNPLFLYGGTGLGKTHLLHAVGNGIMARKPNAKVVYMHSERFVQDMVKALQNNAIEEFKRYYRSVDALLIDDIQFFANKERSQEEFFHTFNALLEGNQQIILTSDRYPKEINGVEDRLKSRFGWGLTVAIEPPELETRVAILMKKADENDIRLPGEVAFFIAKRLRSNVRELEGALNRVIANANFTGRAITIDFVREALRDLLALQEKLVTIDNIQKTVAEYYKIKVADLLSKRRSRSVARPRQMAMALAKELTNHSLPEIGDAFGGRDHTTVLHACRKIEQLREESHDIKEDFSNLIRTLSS

Variants of: B1
Conditions: with dnaa_ecoli dnaA

Row | Variant | effect of a mutation on the interaction
1 | MQERIKACFTESIQTQIAAAEALPDAISRAAMTLVQSLLNGNKILCCGNGTSAANAQHFAASMINRFETERASLPAIALNTDNVVLTAIANDRLHDEVYAKQVRALGHAGDVLLAISTRGNSRDIVKAVEAAVTRDMTIVALTGYDGGELAGLLGPQDVEIRIPSHRSARIQEMHMLTVNCLCDLIDNTLFPHQDD [P72A] | decreasing interaction
2 | MQERIKACFTESIQTQIAAAEALPDAISRAAMTLVQSLLNGNKILCCGNGTSAANAQHFAASMINRFETERPSLPAIALNTDDVVLTAIANDRLHDEVYAKQVRALGHAGDVLLAISTRGNSRDIVKAVEAAVTRDMTIVALTGYDGGELAGLLGPQDVEIRIPSHRSARIQEMHMLTVNCLCDLIDNTLFPHQDD [N83D] | decreasing interaction
3 | MQERIKACFTESIQTQIAAAEALPDAISRAAMTLVQSLLNGNKILCCGNGTSAANAQHFAASMINRFETERPSLPAIALNTDNVVLTAIANDRLHDEVYAKQVRALGHAGDVLLAISTRGNSRDIVKAVEAAVTRDMTIVALTGYDGGELAGLLGPQDVEIRIPSHRSARIQEMHMLTVNCLCDLIDNTLLPHQDD [F191L] | disrupting interaction
4 | MQERIKACFTESIQTQIAAAEALPDAISRAAMTLVQSLLNGNKILCCGNGTSAANAQHFAASMINRFETERPSLPAIALNTDNVVLTAIANDRLHDEVYAKQVRALGHAGDVLLAISTRGNSRDIVKAVEAAVTRDMTIVALTGYDGGELAGLLGPQDVEIRIPSHRSARIQEMHMLTVNCLCDLIDNTLSPHQDD [F191S] | disrupting interaction
5 | MQERIKACFTESIQTQIAAAEALPDAISRAAMTLVQSLLNGNKILCCGNGTSAANAQHFAASMINRFETERPSLPAIALNTDNVVLTAIANDRLHDEVYAKQVRALGHAGDVLLAISTRGNSRDIVKAVEAAVTRDMTIVALTGYDGGELAGLLGPQDVEIRIPSHRSARIQEMHMLTVNCLCDLIDNTAFPHQDD [L190A] | disrupting interaction

Now from value to variant:

Row | effect of a mutation on the interaction | Variant
6 | decreasing interaction | MQERIKACFTESIQTQIAAAEALPDAISRAAMTLVQSLLNGNKILCCGNGTSAANAQHFAASMINRFETERSSLPAIALNTDNVVLTAIANDRLHDEVYAKQVRALGHAGDVLLAISTRGNSRDIVKAVEAAVTRDMTIVALTGYDGGELAGLLGPQDVEIRIPSHRSARIQEMHMLTVNCLCDLIDNTLFPHQDD [P72S]
7 | decreasing interaction | MQERIKACFTESIQTQIAAAEALPDAISRAAMTLVQSLLNGNKILCCGNGTSAANAQHFAASMINRFETERPSLPAIALNTDNVVLTAIANDRLHDEVYAEQVRALGHAGDVLLAISTRGNSRDIVKAVEAAVTRDMTIVALTGYDGGELAGLLGPQDVEIRIPSHRSARIQEMHMLTVNCLCDLIDNTLFPHQDD [K101E]
8 | disrupting interaction | MQERIKACFTESIQTQIAAAEALPDAISRAAMTLVQSLLNGNKILCCGNGTSAANAQHFAASMINRFETERPSLPAIALNTDNVVLTAIANDRLHDEVYAKQVRALGHAGDVLLAISTRGNSRDIVKAVEAAVTRDMTIVALTGYDGGELAGLLGPQDVEIRIPSHRSARIQEMHMLTVNCLCDLIDNTPFPHQDD [L190P]

Variants of: B1
Conditions: with dnaa_ecoli dnaA
Remark: another data set of the same source

Row | effect of a mutation on the interaction | Variant
9 | decreasing interaction | MQERIKACFTESIQTQIAAAEALPDAISRAAMTLVQSLLNGNKILCCGNGTFAANAQHFAASMINRFETERPSLPAIALNTDNVVLTAIANDRLHDEVYAKQVRALGHAGDVLLAISTRGNSRDIVKAVEAAVTRDMTIVALTGYDGGELAGLLGPQDVEIRIPSHRSARIQEMHMLTVNCLCDLIDNTLFPHQDD [S52F]
